Measured values as given in patent EP3573716B1, “BIOLOGICALLY ACTIVE FUSION PEPTIDE FOR USE IN THE TREATMENT OF SPINAL MUSCULAR ATROPHY (SMA)” (Istituti Clinici Scientifici Maugeri Spa Società Benefit, priority 2017, dated 2026).

Key:
[1] = system: Smn knock-down NSC-34 motor neuronal cells (sh_Smn_519-FM5S clone); assay: Neuritogenesis and neurite outgrowth (morphometric analysis, β-tubulin III immunostaining) in Smn knock-down motor neuronal cells; assay type: cell-based, mouse
Protocol: (§1) The psiRNA-hH1neo G2 (InvivoGen) and sh_Smn_519 (Shafey et al. Hypomorphic Smn knockdown C2C12 myoblasts reveal intrinsic defects in myoblast fusion and myotube morphology, 2005, Exp Cell Res 311:49-61) constructs were transfected into the NSC-34 cells using FuGENE HD Transfection Reagent (Promega) according to the manufacturer's instructions. Forty-eight hours after the transfection, cells were subject to drug selection with 1 mg/ml G418 (Sigma-Aldrich) to obtain stably transfected cell lines. Two weeks after the transfection, single clones were picked and expanded in a DMEM/10% FBS/G418-based medium to obtain the psiRNA and sh_Smn_519 NSC-34 clonal cell lines, respectively. To induce differentiation, clones were maintained in culture with differentiation medium (DMed) (1:1 DMEM plus Ham's F12, 1% FBS, 1% penicillin/streptomycin, and 1% modified Eagle's medium nonessential amino acids; see 48).
Twenty-four hours after plating, psiRNA and sh_Smn_519 NSC-34 stable clones were treated with various concentrations of transducible fusion protein/peptide (3 hours). Protein/peptide in excess were subsequently removed and cells were maintained in culture in DMed for 24 and 48 hours. Cells were then fixed and stained, as described below. Neurite outgrowth and/or cell death were subsequently analyzed (see "Immunocytochemistry") .
For immunostaining, cells were incubated for 1 hour with a blocking/permeabilizing solution (5% Serum, 0.1% Triton X-100, in PBS) at room temperature. To evaluated neurite outgrowth, cells were immunostained using a mouse antibody to β-tubulin isotype III (Sigma-Aldrich). Neurite length was measured according to a protocol previously established in our laboratory using ImageJ software (National Institutes of Health) and NeuronJ plug-in. Briefly, only processes as long as twofold the average cell body dimension were considered neurites and measured. […] A total of about 100 cells per group were analyzed. […]

[2] = system: Smn knock-down NSC-34 motor neuronal cells (sh_Smn_519-FM5S clone); assay: Apoptotic cell death (cells with condensed nuclei, Hoechst 33342) in Smn knock-down motor neuronal cells; assay type: cell-based, mouse; details: 48 hours after the switch to DMed
Protocol: as §1, with “To induce differentiation, clones were maintained in culture with differentiation medium (DMed) (1:1 DMEM plus Ham's F12, 1% FBS, 1% penicillin/streptomycin, and 1% modified Eagle's medium nonessential amino acids; see 48).” left out
Twenty-four hours after plating, psiRNA and sh_Smn_519 NSC-34 stable clones were treated with various concentrations of transducible fusion protein/peptide (3 hours). […] Neurite outgrowth and/or cell death were subsequently analyzed (see "Immunocytochemistry") .
Cells were rinsed in phosphate-buffered saline (PBS) and fixed in 4% PFA for 20 min. […] The number of cells showing condensed nuclei was counted as previously described.
Subsequently, the neuroprotective activity of the two peptides was evaluated. […] Forty-height hours after the switch to DMed, the impact of the two TAT48-57-fusion peptides towards cell death was determined in terms of reduction in the number of cells with condensed nuclei. […]

B1: TAT48-57-SMN^235-294: fusion peptide of carrier peptide TAT48-57 (SEQ ID NO: 1) and SMN^235-294 carboxy-terminal domain (SEQ ID NO: 29) as active peptide portion (peptide, listed as Homo sapiens)
chain: GRKKRRQRRRPFPSGPPIIPPPPPICPDSLDDADALGSMLISWYMSGYHTGYYMGFRQNQKEGRCSHSLN
modifications: HIV-1; Fragment of the full-length human SMN protein, i.e. the SMN235-294 carboxy-terminal domain
B1 was tested, and the “diminished the number of sh_Smn_519-FM5S cells without neurites” value ([1]; 10 nM, versus untreated sh_SMN_519-FM5S cells, 24 hours after the switch to DMed) was roughly 40%, the “concentration with significant effect on number of cells without neurites and mean length of the longest neurite per cell” value ([1]; sh_Smn_519-FM5S clone, 3 hours pre-incubation, then differentiating conditions (DMed)) was “above 10 nM” and the “increased the mean length of the longest neurite per cell” value ([1]; sh_Smn_519-FM5S clone, apparently 10 nM, versus untreated cells, 24 hours after the switch to DMed) was 30%. For the same molecule, the “diminished the number of cells with condensed nuclei” value ([2]; 100 nM, sh_Smn_519-FM5S cells, versus untreated cells) was roughly 45% and the “concentrations significantly protective towards apoptotic cell death” value ([2]; sh_SMN_519-FM5S cells) was 1 to 100 nM.
